Experimental data as given in US11685786 (MERUS N V, dated 2023).

Experiments:
[1] = target: T1, recombinant huCD137-Fc (R&D; cat. no. 838-4B) (human, UniProt Q07011 24-186); assay: CD137L blocking assay; competitor CD137L; format not told in the excerpt
T1 construct: Bought; not shown: Fc of bought fusion protein, not described

[2] = target: T1, recombinant huCD137-Fc (R&D; cat. no. …); assay: competition ELISA: CD137L-muCD8 biotin on coated CD137-Fc, IgG 20 ug/ml

Binder	% CD137L block [1] [%]	% CD137L block [2] [%]
MF6744 x MF6744 bivalent monospecific CD137 IgG (antibody, V domains shown, bivalent IgG; also called PG6744; PB14135; copies: 2 + 2) VH: EVQLVQSGAEVKKPGESLKISCKGSGYSFTSYWIGWVRQMPGKGLEWMGIIFPDDSDTRYSPSFQGQVTISADKSISTAYLQWSSLKPSDTAMYYCVRLGGYSGYAEDFVDFWGQGTLVTVSS VL: not shown	67	67
MF6798 x MF6798 bivalent monospecific CD137 IgG (antibody, V domains shown, bivalent IgG; copies: 2 + 2) VH: QVQLVQSGSELKKPGASVKVSCRASGYTFTNFAMTWVRQAPGQGPEYMGWINTNTGNPTYAQGFTGRFVFSLDTSVNTAYLQISSLKAEDTAVYYCARDWASVMVRGDLDYWGQGTLVTVSS VL: not shown	44	44
MF6825 x MF6825 bivalent monospecific CD137 IgG (antibody, V domains shown, bivalent IgG; also called PB14162; copies: 2 + 2) VH: QITLKESGPTLVKPTQTLTLSCTFSGFSLSTSGMSVGWIRQPPGKALEWLALIYWNDDKYFSPSLKSRLTITKDTSKNQVVLTLTNMDPVDTATYYCAHTLWGSDDVFDVWGQGTMVTVSS VL: not shown	89	89
MF6795 x MF6795 bivalent monospecific CD137 IgG (antibody, V domains shown, bivalent IgG; copies: 2 + 2) VH: EVQLVQSGAEVKKPGESLKISCKGSGYSFTSYWIGWVRQMPGKGLEWMGIIYPDDSDTRYSPSFQGQVTISADKSSSTAYLQWSSLKASDTAMYYCASFYTGIVGATGAFDVWGQGTTVTVSS VL: not shown	32	32
MF6783 x MF6783 bivalent monospecific CD137 IgG (antibody, V domains shown, bivalent IgG; also called PG6783; PB14143; copies: 2 + 2) VH: QVQLVQSGSELKKPGASVKVSCKASGYTFTNFAMNWVRRAPGQGLEWMGWINTNTGNPTYAQGFTGRFVFSLDTSVNTAYLQISSLKAEDTAVYYCARDWGVIGGHYMDVWGKGTTVTVSS VL: not shown	44	44
MF6861 x MF6861 bivalent monospecific CD137 IgG (antibody, V domains shown, bivalent IgG; copies: 2 + 2) VH: QVQLVQSGAEVKKPGASVKVSCKASGYTFTSYGISWVRQAPGQGLEWMGWISAYNGNTNYAQKLQGRVTMTTDTSTSTAYMELRSLRSDDTAVYYCARDSDGYGPKAFDYWGQGTLVTVSS VL: not shown	50	50
MF6788 x MF6788 bivalent monospecific CD137 IgG (antibody, V domains shown, bivalent IgG; also called PB14193; copies: 2 + 2) VH: EVQLVQSGSELKKPGASVKVSCKASGYTFTNFAMNWVRQAPGQGLEWMGWINTNTGNPTYAQDFTGRFVFSLDTSGNTAYLQISSLKAEDTAVYYCARDWGLVAIGYFDYWGQGTLVTVSS VL: not shown	55	55
